According to the supplement of paper PMC10567573:

B1: HDAC6 (parent)
chain: YVHHQALLDVKNIAHQNKFGEDMP

Variants of: B1
Test: protein stability index of a GFP-peptide fusion (GPS, HEK-293T) (PSI 1-6); higher = more stable
Details: c terminus: a fixed tail appended
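Note: lentivirally expressed fusions sorted by FACS into six bins by GFP to DsRed ratio, PSI derived from sequencing read proportions per bin multiplied by bin number.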

Protein stability index, by site and new letter:
Q5: P 1.71; A 2.4; D 2.08; M 2.21; S 1.76; I 1.88; V 1.85; R 2; E 2.16; N 1.79; H 2.19; T 1.95; G 1.87; C 1.36; K 2.02; W 3.05
N17: C 1.87; G 1.58; V 1.75; P 2.12; L 1.68; E 1.91; Q 1.85; T 2.47; M 1.59; S 2.46; I 1.48; F 1.38; K 1.97; D 1.9
L8: F 3.34; G 2.09; H 2.72; D 2.71; R 2.06; V 1.75; A 1.93; S 2.39; K 2.31; Q 2.4; Y 2.32; E 2.87; P 2; T 2.44
F19: P 2.83; L 2.09; N 2.05; D 2.48; T 2.19; A 2.51; C 1.78; R 1.88; E 2.45; M 2.34; I 1.76
H3: A 1.55; Q 1.78; M 1.8; S 2; F 1.48; K 2.18; L 2; D 2.14; E 2.81; W 2.41; T 1.82; N 2.62
N12: P 2.12; M 1.87; T 2.09; L 1.93; Y 3.4; E 1.66; S 2.09; I 2.4; H 1.72; K 2.18; R 2.36; G 2.71; W 2.64; D 1.67
H4: T 1.47; F 2.98; E 2.82; P 3.02; M 1.83; Y 1.78; I 1.97; V 1.95; Q 2.61; D 2.64; N 1.65; G 1.99; S 1.64
L7: E 2.88; T 2.18; S 2.31; K 1.9; C 1.97; A 1.89; V 2.21; N 2.4; I 1.83; G 2.33; Q 2.14; D 2.61; W 2.77; Y 2.53
I13: D 2.77; Q 1.92; A 2.18; Y 1.95; S 2.28; N 1.98; C 1.81; E 2.27; H 1.95; F 1.94; P 2.17; V 2.31; K 2; L 1.77
A14: S 2.35; L 1.9; Y 1.74; R 2.04; D 2; K 2.33; V 2.59; Q 2.21; E 2.3; F 1.52; N 2.26; W 2.79; P 2.42; G 1.76
V2: M 3.17; K 4.15; T 2.95; C 2.02; N 4.12; F 2.44; Q 2.77; S 3.56; L 2.56; A 3.16; H 1.65; E 4.55; Y 2.98
K18: Q 1.95; D 1.7; E 2.37; G 2.58; A 2.23; N 2.26; V 1.74; P 2.35; C 1.37; F 1.9; R 2.88; H 1.78; S 1.49; L 1.73; T 2.43
E21: M 1.71; S 2.22; K 1.57; L 1.72; G 2.14; R 1.47; F 2.54; V 1.61; W 2.02; I 1.57; P 1.4; Q 2.11; A 2.01
Y1: I 3.21; K 4.06; M 3.49; V 3.14; P 4.1; S 4.29; F 1.94; W 2.98; R 3.59; D 4.81; A 4.15; E 4.05; L 3.3; Q 4.14; T 3.75; C 3.29
M23: E 2.06; Q 1.68; L 1.97; F 2.23; C 1.95; V 1.74; N 1.88; P 2.18; I 2.39
A6: G 2.65; K 1.64; R 2.07; N 1.84; I 3.2; S 2.41; P 1.69; Y 2.07; Q 1.86; D 2.22; L 1.58; C 1.71; W 2.7; V 1.86; T 1.97; E 2.17; H 1.86; M 1.96
H15: Y 1.43; I 1.77; G 1.51; Q 2.08; W 2.85; A 2.57; S 1.75; N 1.63; V 2.08; M 2.12; D 2.2; T 1.59; K 2.35; R 2.16; E 2.53; C 1.7
D9: E 2.4; R 1.65; K 2.67; Q 1.68; H 2.56; F 2.23; T 1.95; S 2.25; A 3.21; L 2.25; V 1.25; W 3.58; I 3.33; G 1.85; Y 2.35; P 4.3
V10: Y 1.62; H 2.14; S 1.84; K 2.21; Q 2.43; L 1.9; G 2.02; F 1.98; N 2.05; D 2.74; T 1.86; E 2.5; R 1.85; W 2.37; I 1.22
G20: T 1.91; K 2.14; S 1.82; A 1.99; Y 2.58; P 1.96; I 1.88; R 1.56; E 2.26; V 2.13; N 1.96; M 2.35; L 2.19; W 2.41; Q 2.03
Q16: M 2.28; A 1.63; T 1.91; S 1.87; C 2.01; R 1.8; E 2.12; Y 2.31; W 2; I 2.16; V 1.48; L 2.21; D 2; G 1.58
D22: Q 1.76; N 2.31; F 1.57; G 1.64; I 2.21; R 1.73; S 2.48; C 2.63; Y 1.74; L 2.17; M 1.68; T 1.86; E 1.69; A 1.67; K 2.09
K11: T 2.25; A 1.81; Q 1.4; Y 2.77; W 3.04; I 2.09; E 2.24; L 1.27; P 1.92; D 2.18; C 1.54
P24: E 1.77; L 2.23; V 1.57; F 1.49; S 2.25; D 1.96; I 2.06; Y 1.51; C 1.98; H 1.58; G 2.36; M 1.96
